{
  "source": "paper PMC5719400",
  "about": "“Engineering an aldehyde dehydrogenase toward its substrates, 3-hydroxypropanal and NAD^+, for enhancing the production of 3-hydroxypropionic acid” (Scientific Reports, 2017)",
  "assay_in_all_cases": "purified protein",
  "assay_type_in_all_cases": "biochemical, Azospirillum brasilense",
  "key": {"[1]": {"substrate": "NC(=O)c1ccc[n+]([C@@H]2O[C@H](COP(=O)(O)OP(=O)(O)OC[C@H]3O[C@@H](n4cnc5c(N)ncnc54)[C@H](O)[C@@H]3O)[C@@H](O)[C@H]2O)c1", "conditions": "3 mM 3-HPA, 100 mM phosphate pH 8, 25 °C, varied: cofactor", "excerpt": "(§1) (α-ketoglutaric semialdehyde dehydrogenase)"}, "[2]": {"substrate": "O=CCCO", "conditions": "2 mM NAD+, 100 mM phosphate pH 8, 25 °C", "excerpt": "as §1"}, "[3]": {"substrate": "NC(=O)c1ccc[n+]([C@@H]2O[C@H](COP(=O)(O)OP(=O)(O)OC[C@H]3O[C@@H](n4cnc5c(N)ncnc54)[C@H](OP(=O)(O)O)[C@@H]3O)[C@@H](O)[C@H]2O)c1", "conditions": "3 mM 3-HPA, 100 mM phosphate pH 8, 25 °C, varied: cofactor", "excerpt": "as §1"}},
  "data": [
    {"protein": "KGSADH (α-ketoglutaric semialdehyde dehydrogenase) (Azospirillum brasilense; A337R/A442P/P444T/R334Q) (protein, N-terminal His6-tag (pQE80L), expressed in E. coli DH10β, Ni-NTA purified; catalytic residues E253 and C287) ANVTYTDTQLLIDGEWVDAASGKTIDVVNPATGKPIGRVAHAGIADLDRALAAAQSGFEAWRKVPAHERAATMRKAAALVRERADAIAQLMTQEQGKPLTEARVEVLSAADIIEWFADEGRRVYGRIVPPRNLGAQQTVVKEPVGPVAAFTPWNFPVNQVVRKLSAALATGCSFLVKAPEETPASPAALLRAFVDAGVPAGVIGLVYGDPAEISSYLIPHPVIRKVTFTGSTPVGKQLASLAGLHMKRATMELGGHAPVIVAEDADVALAVKAAGGAKFRNAGQVCISPTRFLVHNSIRDEFTRALVKHAEGLKVGNGLEEGTTLGALANPRQLTRMASVIDNARKVGASIETGGERIGSEGNFFAPTVIANVPLDADVFNNEPFGPVAAIRGFDKLEEAIAEANRLPFGLAGYAFTRSFANVHLLTQRLEVGMLWINQPPTTWPEMPFGGVKDSGYGSEGGPEALEPYLVTKSVTVMAV", "values": [
      {"measurement": "Km", "setting": "[1]; variant 106-QR", "value": "0.025(±0.0045) mM"},
      {"measurement": "kcat", "setting": "[1]; variant 106-QR", "value": "4.8 ± 0.93", "unit": "s⁻¹"},
      {"measurement": "kcat/Km", "setting": "[1]; variant 106-QR", "value": "192000 ± 72500", "unit": "M⁻¹ s⁻¹"},
      {"measurement": "Km", "setting": "[2]; variant 106-QR", "value": "0.29(±0.062) mM"},
      {"measurement": "kcat", "setting": "[2]; variant 106-QR", "value": "5 ± 1.2", "unit": "s⁻¹"},
      {"measurement": "kcat/Km", "setting": "[2]; variant 106-QR", "value": "17000 ± 7800", "unit": "M⁻¹ s⁻¹"}
    ]},
    {"protein": "KGSADH (α-ketoglutaric semialdehyde dehydrogenase) (Azospirillum brasilense; A337R/A442P/K273A/P444A/R334Q/T443E) (protein, N-terminal His6-tag (pQE80L), expressed in E. coli DH10β, Ni-NTA purified; catalytic residues E253 and C287) ANVTYTDTQLLIDGEWVDAASGKTIDVVNPATGKPIGRVAHAGIADLDRALAAAQSGFEAWRKVPAHERAATMRKAAALVRERADAIAQLMTQEQGKPLTEARVEVLSAADIIEWFADEGRRVYGRIVPPRNLGAQQTVVKEPVGPVAAFTPWNFPVNQVVRKLSAALATGCSFLVKAPEETPASPAALLRAFVDAGVPAGVIGLVYGDPAEISSYLIPHPVIRKVTFTGSTPVGKQLASLAGLHMKRATMELGGHAPVIVAEDADVALAVAAAGGAKFRNAGQVCISPTRFLVHNSIRDEFTRALVKHAEGLKVGNGLEEGTTLGALANPRQLTRMASVIDNARKVGASIETGGERIGSEGNFFAPTVIANVPLDADVFNNEPFGPVAAIRGFDKLEEAIAEANRLPFGLAGYAFTRSFANVHLLTQRLEVGMLWINQPPEAWPEMPFGGVKDSGYGSEGGPEALEPYLVTKSVTVMAV", "values": [
      {"measurement": "Km", "setting": "[1]; variant 108-QR", "value": "0.037(±0.0024) mM"},
      {"measurement": "kcat", "setting": "[1]; variant 108-QR", "value": "6.1 ± 0.64", "unit": "s⁻¹"},
      {"measurement": "kcat/Km", "setting": "[1]; variant 108-QR", "value": "165000 ± 28000", "unit": "M⁻¹ s⁻¹"},
      {"measurement": "Km", "setting": "[3]; variant 108-QR", "value": "0.66(±0.065) mM"},
      {"measurement": "kcat", "setting": "[3]; variant 108-QR", "value": "4.5 ± 1.1", "unit": "s⁻¹"},
      {"measurement": "kcat/Km", "setting": "[3]; variant 108-QR", "value": "6900 ± 2300", "unit": "M⁻¹ s⁻¹"},
      {"measurement": "Km", "setting": "[2]; variant 108-QR", "value": "0.17(±0.032) mM"},
      {"measurement": "kcat", "setting": "[2]; variant 108-QR", "value": "6 ± 1.3", "unit": "s⁻¹"},
      {"measurement": "kcat/Km", "setting": "[2]; variant 108-QR", "value": "35000 ± 14000", "unit": "M⁻¹ s⁻¹"}
    ]},
    {"protein": "KGSADH (α-ketoglutaric semialdehyde dehydrogenase) (Azospirillum brasilense; A110S/A337R/A442P/K273A/P444T/R334Q) (protein, N-terminal His6-tag (pQE80L), expressed in E. coli DH10β, Ni-NTA purified; catalytic residues E253 and C287) ANVTYTDTQLLIDGEWVDAASGKTIDVVNPATGKPIGRVAHAGIADLDRALAAAQSGFEAWRKVPAHERAATMRKAAALVRERADAIAQLMTQEQGKPLTEARVEVLSSADIIEWFADEGRRVYGRIVPPRNLGAQQTVVKEPVGPVAAFTPWNFPVNQVVRKLSAALATGCSFLVKAPEETPASPAALLRAFVDAGVPAGVIGLVYGDPAEISSYLIPHPVIRKVTFTGSTPVGKQLASLAGLHMKRATMELGGHAPVIVAEDADVALAVAAAGGAKFRNAGQVCISPTRFLVHNSIRDEFTRALVKHAEGLKVGNGLEEGTTLGALANPRQLTRMASVIDNARKVGASIETGGERIGSEGNFFAPTVIANVPLDADVFNNEPFGPVAAIRGFDKLEEAIAEANRLPFGLAGYAFTRSFANVHLLTQRLEVGMLWINQPPTTWPEMPFGGVKDSGYGSEGGPEALEPYLVTKSVTVMAV", "values": [
      {"measurement": "Km", "setting": "[1]; variant 104-QR", "value": "0.033(±0.0089) mM"},
      {"measurement": "kcat", "setting": "[1]; variant 104-QR", "value": "5.9 ± 0.61", "unit": "s⁻¹"},
      {"measurement": "kcat/Km", "setting": "[1]; variant 104-QR", "value": "179000 ± 66700", "unit": "M⁻¹ s⁻¹"},
      {"measurement": "Km", "setting": "[2]; variant 104-QR", "value": "0.43(±0.094) mM"},
      {"measurement": "kcat", "setting": "[2]; variant 104-QR", "value": "6.7 ± 0.64", "unit": "s⁻¹"},
      {"measurement": "kcat/Km", "setting": "[2]; variant 104-QR", "value": "16000 ± 4900", "unit": "M⁻¹ s⁻¹"}
    ]},
    {"protein": "KGSADH (α-ketoglutaric semialdehyde dehydrogenase) (Azospirillum brasilense) (protein, N-terminal His6-tag (pQE80L), expressed in E. coli DH10β, Ni-NTA purified; catalytic residues E253 and C287) ANVTYTDTQLLIDGEWVDAASGKTIDVVNPATGKPIGRVAHAGIADLDRALAAAQSGFEAWRKVPAHERAATMRKAAALVRERADAIAQLMTQEQGKPLTEARVEVLSAADIIEWFADEGRRVYGRIVPPRNLGAQQTVVKEPVGPVAAFTPWNFPVNQVVRKLSAALATGCSFLVKAPEETPASPAALLRAFVDAGVPAGVIGLVYGDPAEISSYLIPHPVIRKVTFTGSTPVGKQLASLAGLHMKRATMELGGHAPVIVAEDADVALAVKAAGGAKFRNAGQVCISPTRFLVHNSIRDEFTRALVKHAEGLKVGNGLEEGTTLGALANPRRLTAMASVIDNARKVGASIETGGERIGSEGNFFAPTVIANVPLDADVFNNEPFGPVAAIRGFDKLEEAIAEANRLPFGLAGYAFTRSFANVHLLTQRLEVGMLWINQPATPWPEMPFGGVKDSGYGSEGGPEALEPYLVTKSVTVMAV", "values": [
      {"measurement": "Km", "setting": "[1]", "value": "0.21(±0.018) mM"},
      {"measurement": "kcat", "setting": "[1]", "value": "12 ± 1.7", "unit": "s⁻¹"},
      {"measurement": "kcat/Km", "setting": "[1]", "value": "57000 ± 13000", "unit": "M⁻¹ s⁻¹"},
      {"measurement": "Km", "setting": "[3]", "value": "2.3(±0.033) mM"},
      {"measurement": "kcat", "setting": "[3]", "value": "8.6 ± 0.84", "unit": "s⁻¹"},
      {"measurement": "kcat/Km", "setting": "[3]", "value": "3700 ± 420", "unit": "M⁻¹ s⁻¹"},
      {"measurement": "Km", "setting": "[2]", "value": "1.6(±0.14) mM"},
      {"measurement": "kcat", "setting": "[2]", "value": "15 ± 2.1", "unit": "s⁻¹"},
      {"measurement": "kcat/Km", "setting": "[2]", "value": "9000 ± 2100", "unit": "M⁻¹ s⁻¹"}
    ]},
    {"protein": "KGSADH (α-ketoglutaric semialdehyde dehydrogenase) (Azospirillum brasilense; A337R/R334Q) (protein, N-terminal His6-tag (pQE80L), expressed in E. coli DH10β, Ni-NTA purified; catalytic residues E253 and C287) ANVTYTDTQLLIDGEWVDAASGKTIDVVNPATGKPIGRVAHAGIADLDRALAAAQSGFEAWRKVPAHERAATMRKAAALVRERADAIAQLMTQEQGKPLTEARVEVLSAADIIEWFADEGRRVYGRIVPPRNLGAQQTVVKEPVGPVAAFTPWNFPVNQVVRKLSAALATGCSFLVKAPEETPASPAALLRAFVDAGVPAGVIGLVYGDPAEISSYLIPHPVIRKVTFTGSTPVGKQLASLAGLHMKRATMELGGHAPVIVAEDADVALAVKAAGGAKFRNAGQVCISPTRFLVHNSIRDEFTRALVKHAEGLKVGNGLEEGTTLGALANPRQLTRMASVIDNARKVGASIETGGERIGSEGNFFAPTVIANVPLDADVFNNEPFGPVAAIRGFDKLEEAIAEANRLPFGLAGYAFTRSFANVHLLTQRLEVGMLWINQPATPWPEMPFGGVKDSGYGSEGGPEALEPYLVTKSVTVMAV", "values": [
      {"measurement": "Km", "setting": "[1]; variant WT-QR", "value": "0.044(±0.0033) mM"},
      {"measurement": "kcat", "setting": "[1]; variant WT-QR", "value": "7.9 ± 0.75", "unit": "s⁻¹"},
      {"measurement": "kcat/Km", "setting": "[1]; variant WT-QR", "value": "180000 ± 30500", "unit": "M⁻¹ s⁻¹"},
      {"measurement": "Km", "setting": "[3]; variant WT-QR", "value": "0.81(±0.15) mM"},
      {"measurement": "kcat", "setting": "[3]; variant WT-QR", "value": "4.4 ± 1.4", "unit": "s⁻¹"},
      {"measurement": "kcat/Km", "setting": "[3]; variant WT-QR", "value": "5400 ± 2700", "unit": "M⁻¹ s⁻¹"},
      {"measurement": "Km", "setting": "[2]; variant WT-QR", "value": "0.55(±0.13) mM"},
      {"measurement": "kcat", "setting": "[2]; variant WT-QR", "value": "6.8 ± 0.35", "unit": "s⁻¹"},
      {"measurement": "kcat/Km", "setting": "[2]; variant WT-QR", "value": "12000 ± 3600", "unit": "M⁻¹ s⁻¹"}
    ]}
  ]
}
